In article PMC7615141, “ADAMTS-7 modulates atherosclerotic plaque formation by degradation of TIMP-1” (Circulation research, 2023):

B1: untagged, recombinant TIMP-1 (natural protein)
chain: not shown
notes: The supplier may be named in the Supplemental Material; also called untagged TIMP-1; source: recombinant, untagged
B2: ADAMTS-7-FLAG (enzyme, human, UniProt Q9UKP4 28-1686, looked up)
chain: APGPAPGRATEGRAALDIVHPVRVDAGGSFLSYELWPRALRKRDVSVRRDAPAFYELQYRGRELRFNLTANQHLLAPGFVSETRRRGGLGRAHIRAHTPACHLLGEVQDPELEGGLAAISACDGLKGVFQLSNEDYFIEPLDSAPARPGHAQPHVVYKRQAPERLAQRGDSSAPSTCGVQVYPELESRRERWEQRQQWRRPRLRRLHQRSVSKEKWVETLVVADAKMVEYHGQPQVESYVLTIMNMVAGLFHDPSIGNPIHITIVRLVLLEDEEEDLKITHHADNTLKSFCKWQKSINMKGDAHPLHHDTAILLTRKDLCAAMNRPCETLGLSHVAGMCQPHRSCSINEDTGLPLAFTVAHELGHSFGIQHDGSGNDCEPVGKRPFIMSPQLLYDAAPLTWSRCSRQYITRFLDRGWGLCLDDPPAKDIIDFPSVPPGVLYDVSHQCRLQYGAYSAFCEDMDNVCHTLWCSVGTTCHSKLDAAVDGTRCGENKWCLSGECVPVGFRPEAVDGGWSGWSAWSICSRSCGMGVQSAERQCTQPTPKYKGRYCVGERKRFRLCNLQACPAGRPSFRHVQCSHFDAMLYKGQLHTWVPVVNDVNPCELHCRPANEYFAEKLRDAVVDGTPCYQVRASRDLCINGICKNVGCDFEIDSGAMEDRCGVCHGNGSTCHTVSGTFEEAEGLGYVDVGLIPAGAREIRIQEVAEAANFLALRSEDPEKYFLNGGWTIQWNGDYQVAGTTFTYARRGNWENLTSPGPTKEPVWIQLLFQESNPGVHYEYTIHREAGGHDEVPPPVFSWHYGPWTKCTVTCGRGVQRQNVYCLERQAGPVDEEHCDPLGRPDDQQRKCSEQPCPARWWAGEWQLCSSSCGPGGLSRRAVLCIRSVGLDEQSALEPPACEHLPRPPTETPCNRHVPCPATWAVGNWSQCSVTCGEGTQRRNVLCTNDTGVPCDEAQQPASEVTCSLPLCRWPLGTLGPEGSGSGSSSHELFNEADFIPHHLAPRPSPASSPKPGTMGNAIEEEAPELDLPGPVFVDDFYYDYNFINFHEDLSYGPSEEPDLDLAGTGDRTPPPHSHPAAPSTGSPVPATEPPAAKEEGVLGPWSPSPWPSQAGRSPPPPSEQTPGNPLINFLPEEDTPIGAPDLGLPSLSWPRVSTDGLQTPATPESQNDFPVGKDSQSQLPPPWRDRTNEVFKDDEEPKGRGAPHLPPRPSSTLPPLSPVGSTHSSPSPDVAELWTGGTVAWEPALEGGLGPVDSELWPTVGVASLLPPPIAPLPEMKVRDSSLEPGTPSFPTPGPGSWDLQTVAVWGTFLPTTLTGLGHMPEPALNPGPKGQPESLSPEVPLSSRLLSTPAWDSPANSHRVPETQPLAPSLAEAGPPADPLVVRNAGWQAGNWSECSTTCGLGAVWRPVRCSSGRDEDCAPAGRPQPARRCHLRPCATWHSGNWSKCSRSCGGGSSVRDVQCVDTRDLRPLRPFHCQPGPAKPPAHRPCGAQPCLSWYTSSWRECSEACGGGEQQRLVTCPEPGLCEEALRPNTTRPCNTHPCTQWVVGPWGQCSGPCGGGVQRRLVKCVNTQTGLPEEDSDQCGHEAWPESSRPCGTEDCEPVEPPRCERDRLSFGFCETLRLLGRCQLPTIRTQCCRSCSPPSHGAPSRGHQRVARR
notes: ADAMTS-7, human; also called ADAMTS-7-FLAG-cryptate; TS7-FLAG-Crypt; source: HEK293, transfected, in lysate

Tests used:
ADAMTS-7-FLAG = target: B2; assay: AlphaScreen or HTRF; competition in the time-resolved FRET assay: untagged recombinant TIMP-1 (400 or 800 ng) added to ADAMTS-7-FLAG and TIMP-1-HA in lysates; 665/620 nm ratio; seven independent experiments; conditions: one partner purified
[1] = target: T1, TIMP-1-HA (tissue inhibitor of metalloproteinases 1 with HA tag) (human, UniProt P01033 24-207); assay: AlphaScreen or HTRF; time-resolved FRET; lysates of HEK293 cells overexpressing ADAMTS-7-FLAG and TIMP-1-HA incubated with anti-FLAG-cryptate and anti-HA-d2 antibodies; excitation 337 nm; 665/620 nm ratio as readout; conditions: partners not purified
T1 construct: source: HEK293, transfected, in lysate; also in the supernatant
T1 sequence (P01033 24-207): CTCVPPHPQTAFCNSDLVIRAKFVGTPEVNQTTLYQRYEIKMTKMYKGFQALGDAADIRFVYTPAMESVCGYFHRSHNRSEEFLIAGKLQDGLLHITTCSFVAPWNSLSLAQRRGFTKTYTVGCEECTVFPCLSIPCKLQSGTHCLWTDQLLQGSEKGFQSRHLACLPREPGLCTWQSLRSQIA

[2] = target: T1, TIMP-1-HA (tissue inhibitor of …); assay: AlphaScreen or HTRF; the pair ADAMTS-7-FLAG and TIMP-1-HA in the competition experiment (lysates; 0 ng untagged TIMP-1 as reference); 665/620 nm ratio; seven independent experiments; conditions: partners not purified

FRET ratio (665/620) of ADAMTS-7-FLAG with TIMP-1-HA in the presence of 400 ng untagged TIMP-1 (ADAMTS-7-FLAG)	FRET ratio (665/620) of ADAMTS-7-FLAG with TIMP-1-HA in the presence of 800 ng untagged TIMP-1 (ADAMTS-7-FLAG)	FRET ratio (665/620) [1]	FRET ratio (665/620) with 0 ng untagged TIMP-1 [2]	Binder
4420 665/620 ratio	3570 665/620 ratio	–	–	B1
–	–	5480 665/620 ratio	4950 665/620 ratio	B2
